Here are results for seven molecules from US20240209100A1 (DIAGONAL THERAPEUTICS, published 2024).

For test [1], the target named is T1, human IL-18Rα (human, UniProt Q13478 19-329, limits assumed).
T1 construct: Monomeric antigen injected in SPR; also called huIL18Ra; IL-18R alpha
T1 sequence: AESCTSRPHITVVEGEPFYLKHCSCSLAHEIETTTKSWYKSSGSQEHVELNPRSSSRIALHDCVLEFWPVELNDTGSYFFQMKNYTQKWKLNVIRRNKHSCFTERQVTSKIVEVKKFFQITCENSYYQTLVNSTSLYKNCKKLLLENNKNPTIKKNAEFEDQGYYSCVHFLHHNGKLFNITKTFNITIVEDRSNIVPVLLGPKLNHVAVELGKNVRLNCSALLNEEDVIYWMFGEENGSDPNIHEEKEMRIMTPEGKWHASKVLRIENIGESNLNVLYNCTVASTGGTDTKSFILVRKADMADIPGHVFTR
As to the kind of experiment: SPR (Carterra LSA), antibody captured on anti-human IgG-Fc, monomeric antigen as analyte, 25 C. On the procedure: (§1) SPR experiments were performed using Carterra LSA equipped with an HC30M chip (Carterra-Bio). Binding assays were carried out at 25° C. with HBSTE (10 mM HEPES ph7.4, 150 mM NaCl, 3 mM EDTA, 0.05% Tween-20) with 0.5 g/L BSA. A density of anti-human IgG-Fc capture lawn was established on an HC30M chip using amine coupling. […] Coupling of goat anti-human IgG (H+L) multi-species SP ads-UNLB (Southern Biotech, 2087-01) with standard immobilization was done for 15 minutes in 10 mM sodium acetate pH 4.5 and quenched using 1M ethanolamine HCl PH8.5. The anti-human IgG-Fc capture surface was then used to capture a panel of antibodies at 20 μg/mL. Monomeric antigen for human IL-18Rα, human IL-18Rβ, cynomolgus IL-18Rα, or rhesus IL-18Rβ targeted by the antibodies was injected over the captured antibody array at 6 concentrations in 4-fold dilution series starting at 500 nM. Binding data was referenced and blanked from a buffer injected, then globally fit to a 1:1 Langmuir binding model for estimation of ka, kd, and KD using Carterra Kinetics Software.

The target in test [2] is T2, cynomolgus IL-18Rα (cynomolgus, UniProt A0A2K5V3J9 19-328).
T2 construct: also called Cyno IL-18Rα; non-human primate IL-18Rα
T2 sequence: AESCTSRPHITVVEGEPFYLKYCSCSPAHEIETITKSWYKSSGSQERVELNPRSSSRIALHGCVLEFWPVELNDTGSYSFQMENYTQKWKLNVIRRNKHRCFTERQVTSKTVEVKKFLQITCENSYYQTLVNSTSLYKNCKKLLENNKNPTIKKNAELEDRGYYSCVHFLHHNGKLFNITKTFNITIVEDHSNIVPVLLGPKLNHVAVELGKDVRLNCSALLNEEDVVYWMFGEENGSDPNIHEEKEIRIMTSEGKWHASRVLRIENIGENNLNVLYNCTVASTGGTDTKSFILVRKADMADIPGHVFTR
The test is described as above. As for the experimental part:
as §1

Test [3] has as its target T3, IL-18 receptor (IL-18Rα/IL-18Rβ) overexpressed on HEK-Blue IL-18 cells (Homo sapiens (Human), UniProt Q13478 19-541; O95256 20-599).
T3 sequence 1: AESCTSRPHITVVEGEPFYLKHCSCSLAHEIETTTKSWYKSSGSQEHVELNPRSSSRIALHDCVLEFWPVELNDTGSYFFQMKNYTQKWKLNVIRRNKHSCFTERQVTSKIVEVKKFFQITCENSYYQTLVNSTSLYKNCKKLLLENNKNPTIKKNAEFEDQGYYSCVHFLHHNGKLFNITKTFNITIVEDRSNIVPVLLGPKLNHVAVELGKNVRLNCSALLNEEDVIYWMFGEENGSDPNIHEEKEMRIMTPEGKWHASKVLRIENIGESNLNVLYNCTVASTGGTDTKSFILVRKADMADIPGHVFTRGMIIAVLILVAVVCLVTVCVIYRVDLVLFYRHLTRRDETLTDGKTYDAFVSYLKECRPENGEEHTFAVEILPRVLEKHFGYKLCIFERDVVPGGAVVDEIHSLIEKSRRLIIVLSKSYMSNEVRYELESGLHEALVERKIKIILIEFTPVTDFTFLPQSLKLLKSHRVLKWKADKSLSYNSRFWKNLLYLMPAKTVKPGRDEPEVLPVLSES
T3 sequence 2: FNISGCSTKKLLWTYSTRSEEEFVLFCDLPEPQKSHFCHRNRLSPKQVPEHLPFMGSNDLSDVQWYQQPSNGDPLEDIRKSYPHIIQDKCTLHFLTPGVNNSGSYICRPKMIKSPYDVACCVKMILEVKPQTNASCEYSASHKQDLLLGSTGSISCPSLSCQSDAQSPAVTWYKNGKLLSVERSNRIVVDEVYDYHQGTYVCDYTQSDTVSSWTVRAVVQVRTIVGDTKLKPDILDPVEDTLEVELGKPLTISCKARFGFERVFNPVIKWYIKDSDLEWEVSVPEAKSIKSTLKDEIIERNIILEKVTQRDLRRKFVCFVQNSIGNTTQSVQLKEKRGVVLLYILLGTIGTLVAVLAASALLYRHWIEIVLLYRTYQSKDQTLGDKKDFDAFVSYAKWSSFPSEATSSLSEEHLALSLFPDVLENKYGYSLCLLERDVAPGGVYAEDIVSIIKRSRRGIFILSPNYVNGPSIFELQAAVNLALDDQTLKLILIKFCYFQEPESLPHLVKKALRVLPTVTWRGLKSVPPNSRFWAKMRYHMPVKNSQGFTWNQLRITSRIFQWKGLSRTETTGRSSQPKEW
As to the kind of experiment: cell-based or functional assay.

Test [4] concerns the target T3, IL-18 receptor (IL-18Rα/IL-18Rβ) …. As to the kind of experiment: cell-based or functional assay. The source holds these as a separate data set.
Test [5] concerns the target T4, human IL-18Rβ (human, UniProt O95256 20-356, limits assumed).
T4 construct: Monomeric antigen injected in SPR; also called IL-18R beta; IL-18Rb
T4 sequence: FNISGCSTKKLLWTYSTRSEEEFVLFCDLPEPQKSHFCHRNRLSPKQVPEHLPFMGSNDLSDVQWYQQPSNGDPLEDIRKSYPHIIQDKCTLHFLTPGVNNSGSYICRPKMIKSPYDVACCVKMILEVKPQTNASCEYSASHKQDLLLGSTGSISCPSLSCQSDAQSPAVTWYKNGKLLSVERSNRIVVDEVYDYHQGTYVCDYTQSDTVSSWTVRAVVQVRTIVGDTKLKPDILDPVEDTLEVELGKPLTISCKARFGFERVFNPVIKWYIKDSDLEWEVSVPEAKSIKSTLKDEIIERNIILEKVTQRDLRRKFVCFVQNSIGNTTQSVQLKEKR
As to the kind of experiment: SPR (Carterra LSA), antibody captured on anti-human IgG-Fc, monomeric antigen as analyte, 25 C. On the procedure: as §1

B1: VHH363 (VHH)
VHH: QVQLVESGGGLVQAGGSLRLSCAASGRTFSSYTMGWFRQAPGKEREFVAAISWSAGRTYYADSVKGRFTISRDNAKNTVYLQMNSLKPEDTAVYFCAAEEAPDWAPIDCSGYGCLSLYDYWGQGTQVTVSS
notes: also called VHH363_alpha
One may read the Kd as the free concentration of one partner at which half of the binding sites on the other are occupied at equilibrium, for simple one-to-one binding. Read a high Kd as a looser complex. As to B1, the Kd in test [1] was 34 nM; in test [2], 95 nM.

B2: DGL174 (bispecific antibody)
heavy 1: EVQLVESGGGLVQAGGSLRLSCAASGSISSRDTMGWYRQAPGKQREMVAVISSSGNTNYADSVLGRFTISRDNAKNTVDLQMNSLKPEDTAIYKCYAHRTYGVDYWGKGTLVTVSSGGGSQVQLVESGGGLVQAGGSLRLSCAASGRTFSSYTMGWFRQAPGKEREFVAAISWSAGRTYYADSVKGRFTISRDNAKNTVYLQMNSLKPEDTAVYFCAAEEAPDWAPIDCSGYGCLSLYDYWGQGTQVTVSSDKTHTCPPCPAPEAAGGPSVFLFPPKPKDTLMISRTPEVTCVVVDVSHEDPEVKFNWYVDGVEVHNAKTKPREEQYNSTYRVVSVLTVLHQDWLNGKEYKCKVSNKALPAPIEKTISKAKGQPREPQVCTLPPSRDELTKNQVSLSCAVKGFYPSDIAVEWESNGQPENNYKTTPPVLDSDGSFFLVSKLTVDKSRWQQGNVFSCSVMHEALHNHYTQKSLSLSPG
heavy 2: not shown
As to B2, in test [3], the “HEK-Blue IL-18: Abs 405” value amounted to 1.14 Abs and the “HEK-Blue IL-18: Fold over Background” value stood at 9.5 fold.

B3: DGL012 (bispecific antibody, human IgG1, kappa, L234A L235A)
heavy 1: EVQLVESGGGLVQAGGSLRLSCAASGRTFSDARMGWFRQAPGRERELIAFISWFGSNTNYGSSVKGRFTISRDNTKNTVYLQMNSLKLEDTAVYYCAACRQSICIDSAEYFDDWGQGTQVTVSSDKTHTCPPCPAPEAAGGPSVFLFPPKPKDTLMISRTPEVTCVVVDVSHEDPEVKFNWYVDGVEVHNAKTKPREEQYNSTYRVVSVLTVLHQDWLNGKEYKCKVSNKALPAPIEKTISKAKGQPREPQVCTLPPSRDELTKNQVSLSCAVKGFYPSDIAVEWESNGQPENNYKTTPPVLDSDGSFFLVSKLTVDKSRWQQGNVFSCSVMHEALHNHYTQKSLSLSPG
heavy 2: not shown
light: DIQMTQSPSSLSASVGDRVTITCQASESIDNWLAWYQQKPGQAPKLLIYSASNLASGVPSRFSGSGSGTDFTLTISSLQPEDFATYYCQSTFYGVNPVPNAFGQGTKVVIKRTVAAPSVFIFPPSDEQLKSGTASVVCLLNNFYPREAKVQWKVDNALQSGNSQESVTEQDSKDSTYSLSSTLTLSKADYEKHKVYACEVTHQGLSSPVTKSFNRGEC
B3: the “HEK-Blue IL-18: Emax (Abs at 630 nm) at 10^8 (average of two replicates)” value in test [4] amounted to 0.28 Abs at 630 nm.

B4: DGL175 (bispecific antibody)
heavy 1: QLQLVESGGGLVQAGGSLRLSCAASRSITFSHNVMGWYRQAPGKQRELVASIGSGGSTNYVDSVKGRATISRDNAKKTVYLQMNSLKPEDTAVYYCGVVVGVYRGSLGQGTQVTVSSGGGSQVQLQESGGGLVQAGGSLRLSCQASGSIATINGMRWWRQAPGKERELVATINSGGSSNYADSVKGRFTISRDNASHTVSLQMNSLKPEDTAVYYCNLYVYSQFPPFSVDDYWGQGARVTVSSDKTHTCPPCPAPEAAGGPSVFLFPPKPKDTLMISRTPEVTCVVVDVSHEDPEVKFNWYVDGVEVHNAKTKPREEQYNSTYRVVSVLTVLHQDWLNGKEYKCKVSNKALPAPIEKTISKAKGQPREPQVCTLPPSRDELTKNQVSLSCAVKGFYPSDIAVEWESNGQPENNYKTTPPVLDSDGSFFLVSKLTVDKSRWQQGNVFSCSVMHEALHNHYTQKSLSLSPG
heavy 2: not shown
As for B4, in test [3], the “HEK-Blue IL-18: Abs 405” value worked out at 1.1 Abs and the “HEK-Blue IL-18: Fold over Background” value was 9.1 fold.

B5: VHH505 (VHH)
VHH: QLQLVESGGGLVQAGGSLRLSCAASRSITFSHNVMGWYRQAPGKQRELVASIGSGGSTNYVDSVKGRATISRDNAKKTVYLQMNSLKPEDTAVYYCGVVVGVYRGSLGQGTQVTVSS
notes: also called VHH505_beta
For the molecule B5, the dissociation constant (Kd) in test [5] is 1.6 nM.

B6: DGL173 (bispecific antibody)
heavy 1: QVQLVESGGGLVQAGGSLRLSCVASGTFFQIHVMGWYRQAPGKQRELVAFIINNGGTRYADSVKGRFTISRDYAKNTVYLQMNSLKPEDTAVYYCNTEGTYRGRYSTDNWGQGTQVTVSSGGGSQVQLVESGGGLVQAGGSLRLSCAASGRTFSKHAMGWFRQAPGKEREFVAAIDWSGGSTYYADSVKGRFTISRDNAKNTVYLQMDSLKPEDTAVYYCAADSYTDYAQLWLPELESEYDYWGQGTQVTVSSDKTHTCPPCPAPEAAGGPSVFLFPPKPKDTLMISRTPEVTCVVVDVSHEDPEVKFNWYVDGVEVHNAKTKPREEQYNSTYRVVSVLTVLHQDWLNGKEYKCKVSNKALPAPIEKTISKAKGQPREPQVCTLPPSRDELTKNQVSLSCAVKGFYPSDIAVEWESNGQPENNYKTTPPVLDSDGSFFLVSKLTVDKSRWQQGNVFSCSVMHEALHNHYTQKSLSLSPG
heavy 2: not shown
Regarding B6, in test [3], the “HEK-Blue IL-18: Abs 405” value is 0.59 Abs and the “HEK-Blue IL-18: Fold over Background” value stood at 4.9 fold.

B7: VHH285 (VHH)
VHH: QVQLVESGGGLVQAGGSLRLSCAASGRTFSKHAMGWFRQAPGKEREFVAAIDWSGGSTYYADSVKGRFTISRDNAKNTVYLQMDSLKPEDTAVYYCAADSYTDYAQLWLPELESEYDYWGQGTQVTVSS
notes: also called VHH285_alpha
On to B7, for which the figures for the Kd in test [1] and in test [2] were 15 nM and 14 nM, respectively.
